Data: article PMC4297426

Target: Gal4 (BD)-human NP: nucleoprotein of the contemporary human IAV H3N2 strain A/Ca/07/04 (influenza A virus H3N2, strain A/Ca/07/04 (human))
Experiment: two-hybrid

Substance | β-Gal activity
ATPase, Na+/K+ transporting, beta 1 polypeptide (ATP1B1) (domain or fragment) | 3.4 Miller units
Acyl-CoA thioesterase 13 (ACOT13) (from UniProt Q9NPJ3 1-140) (natural protein) | 6.9 Miller units
Cytoskeleton associated protein 5 (CKAP5) (domain or fragment) | 70.1 Miller units
FLJ30306 (…: Homo sapiens uncharacterized LOC101059922, mRNA) (natural protein) | 1.9 Miller units
Myb/SANT-like DNA-binding domain containing 3 (MSANTD3) (domain or fragment) | 13.9 Miller units
Potassium channel tetramerisation domain containing 9 (KCTD9) (domain or fragment) | 5 Miller units
Proteasome (prosome, macropain) activator subunit 2 (PA28B) (from UniProt Q9UL46 1-239) (natural protein) | 6.7 Miller units
Solute carrier family 30 (zinc transporter), member 9 (SLC30A9) (domain or fragment) | 82.9 Miller units
Transformer 2 beta homolog (Drosophila) (TRA2B) (from UniProt P62995 1-288) (natural protein) | 1.9 Miller units
phosphoribosylaminoimidazole carboxylase, phosphoribosylaminoimidazole succinocarboxamide synthetase (PAICS) (from UniProt P22234 1-425) (natural protein) | 2.2 Miller units
